This test addresses β2B (UniProt Q08289). The test is described as follows: flow-cytometric FRET 2-hybrid.

Rad, sequence (O88667 whole entry, looked up, change not shown): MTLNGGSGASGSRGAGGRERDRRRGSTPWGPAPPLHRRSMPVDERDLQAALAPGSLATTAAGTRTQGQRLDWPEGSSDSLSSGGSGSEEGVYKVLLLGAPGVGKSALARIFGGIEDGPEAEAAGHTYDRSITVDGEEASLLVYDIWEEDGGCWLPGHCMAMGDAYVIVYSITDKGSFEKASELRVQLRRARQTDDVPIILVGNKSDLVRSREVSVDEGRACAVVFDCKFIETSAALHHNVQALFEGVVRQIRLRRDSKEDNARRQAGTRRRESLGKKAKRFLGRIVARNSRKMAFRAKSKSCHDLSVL

As for “Rad (from UniProt O88667) 4-SA Rad with PKAcat”, the “other: Kd,EFF (FRET 2-hybrid, relative)” value (reference: WT Rad with PKAcat, sites S25,S38,S272,S300) was “stronger; reference 145231 ± 3084”.

Take “Rad (from UniProt O88667) 4-SA Rad, PKAcat co-expressed”: where the note is “reference: 4-SA Rad, no PKAcat”, the “other: Kd,EFF (FRET 2-hybrid, relative)” value is “same; reference 4346± 197”.

Consider “Rad (from UniProt O88667) WT Rad, PKAcat co-expressed”, for which the “other: Kd,EFF (FRET 2-hybrid, relative)” value (reference: WT Rad, no PKAcat, sites S25,S38,S272,S300) was “weaker; reference 7957 ± 418”.
